Experimental findings from publication PMC3629905 (Biochemistry, 2013) are described below.

Data set [1] relates to CCCCCC(=O)CC(=O)N[C@H]1CCOC1=O. Description: purified protein. Conditions: pH 8.3; 37.0 °C.
Data set [2] concerns CCCC(=O)CC(=O)N[C@H]1CCOC1=O. Kind of data set: purified protein. Conditions: pH 8.3; 37.0 °C.
In data set [3] the target is GKL (quorum-quenching lactonase from Geobacillus kaustophilus) (Geobacillus kaustophilus, UniProt Q5KZU5, E101G/R230C/D266N).

In the case of “GKL (quorum-quenching lactonase from Geobacillus kaustophilus) (Geobacillus kaustophilus HTA426; E101G/R230C)”, in data set [1], the Km was 3.0 ± 0.4 mM and the kcat/Km turned out to be 700 M⁻¹ s⁻¹. Also, in data set [2], the Km is 22 ± 12 mM and the kcat/Km amounted to 50 M⁻¹ s⁻¹.
Turning to “GKL (quorum-quenching lactonase from Geobacillus kaustophilus) (Geobacillus kaustophilus HTA426; E101N)”, in data set [1], the Km came out at 4.0 ± 3.2 mM and the kcat/Km was determined as 53 M⁻¹ s⁻¹.
As for “GKL (quorum-quenching lactonase from Geobacillus kaustophilus) (Geobacillus kaustophilus HTA426)”, in data set [1], the Km is recorded as 5.5 ± 2.1 mM and the kcat/Km was determined as 38 M⁻¹ s⁻¹.
On to `CCCC(=O)NC1CCOC1=O` (racemic) [C4-HSL, N-butyryl-L-homoserine lactone], for which the “X-ray crystal structure, 2.2 Å” value in data set [3] is “its catalytically inactive variant E101G/R230C/D266N with the quorum-molecule C4-HSL bound in the active site”.
